# Assay results: US20250383350, “ANALYTE DETECTION USING APTAMERS” (The Regents of the University of Michigan, published 2025)
# How the values were obtained:
# [1] = target: T1, IL-8 (CXCL8), captured by monoclonal antibody (Homo sapiens, UniProt P10145 P10145:28-99); test: single-molecule TIRF; antibody-mediated capture; 25% horse serum, 21 C; kon 4.48e6, koff 1.17; settings: tags: Bio-Rad BR-1098; captured by biotinylated anti-IL-8 EPR19358-108; label: 5'-Cy5
# Procedure: (§1) SiMREPS assays of recombinant antigens-All sample handling was performed in GeneMate low-adhesion 1.7-mL microcentrifuge tubes, and dilutions were performed in 25% horse serum, 0.75×PBS, pH 7.4, and 7.5 mg/mL BSA. The slide surface was washed with 100 μL of T50 buffer (10 mM Tris-HCl, 50 mM NaCl, 1 mm EDTA, pH 8.0) for 10 minutes followed by the addition of 40 μL 1 mg/mL streptavidin. After 10 minutes, excess streptavidin was removed, and the sample chamber washed three times with 100 μL of 1×PBS. Next, the coverslip was coated with the biotinylated capture antibody by adding 40 μL of a solution containing 10 nM of biotinylated capture antibody in 1×PBS buffer and incubating for 30 minutes. […]
# (§2) To systematically assess the effect of aptamer size on the kinetics of binding to the small (8.4 kDa) protein IL-8, two different antigen capture strategies were used: direct capture, in which C-terminally biotin labelled IL-8 was immobilized directly on the surface by the biotin-streptavidin interaction; and antibody mediated capture, in which non-biotinylated IL-8 was captured on the surface by a surface-immobilized biotinylated monoclonal antibody (FIG. 7A). […] To gain more quantitative insight, association and dissociation rate constants were calculated from the dwell time distributions in the aptamer-unbound and -bound states, respectively, and are shown in Table 2.
# [2] = target: T2, IL-8 (CXCL8), C-terminally biotinylated, directly surface-captured (Homo sapiens, UniProt P10145 P10145:28-99); test: single-molecule TIRF; direct IL-8 capture; 25% horse serum, 21 C; kon 5.68e6, koff 0.50; settings: tags: C-terminal biotin; Chemotactics B-CXCL8-2 ug; immobilized on streptavidin; label: 5'-Cy5
# T2 sequence (P10145 28-99, one chain of several): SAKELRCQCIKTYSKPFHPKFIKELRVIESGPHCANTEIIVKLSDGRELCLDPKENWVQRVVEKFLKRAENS
# Description: as §2
# [3] = target: T1, IL-8 (CXCL8), captured by monoclonal …; test: single-molecule TIRF; antibody-mediated capture; 25% horse serum, 21 C; kon 2.29e6, koff 2.32; settings: tags: Bio-Rad BR-1098; captured by biotinylated anti-IL-8 EPR19358-108; label: 3'-Cy5
# Procedure: as §1, §2
# [4] = target: T2, IL-8 (CXCL8), C-terminally …; test: single-molecule TIRF; direct IL-8 capture; 25% horse serum, 21 C; kon 3.21e6, koff 0.54; settings: tags: C-terminal biotin; Chemotactics B-CXCL8-2 ug; immobilized on streptavidin; label: 3'-Cy5
# Description: as §2
# VEGF165 [5] = target: T3, VEGF165 (Homo sapiens, UniProt P15692-4 P15692-4:27-191); test: single-molecule TIRF; settings: tags: Abcam ab9571; captured by biotinylated anti-VEGF165 IgG (Bio-Rad); chain copies: 2; label: 3'-Cy5
# T3 sequence (P15692 other isoform, or with tags, fused parts or gaps): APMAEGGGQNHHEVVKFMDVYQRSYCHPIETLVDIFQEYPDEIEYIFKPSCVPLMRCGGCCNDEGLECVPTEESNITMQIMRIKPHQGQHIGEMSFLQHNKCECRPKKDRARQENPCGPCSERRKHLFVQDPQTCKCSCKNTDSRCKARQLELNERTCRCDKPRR
# VEGF165 [6] = target: T3, VEGF165; test: single-molecule TIRF; same buffer as t22 G->A; settings: tags: Abcam ab9571; captured by biotinylated anti-VEGF165 IgG (Bio-Rad); chain copies: 2; label: 3'-Cy5
# [7] = target: T1, IL-8 (CXCL8), captured by monoclonal …; test: single-molecule TIRF; antibody-mediated capture; 25% horse serum, 21 C; kon 0.99e6, koff 2.50; settings: tags: Bio-Rad BR-1098; captured by biotinylated anti-IL-8 EPR19358-108; label: 3'-Cy5
# Procedure: as §1, §2
# [8] = target: T2, IL-8 (CXCL8), C-terminally …; test: single-molecule TIRF; direct IL-8 capture; 25% horse serum, 21 C; kon 2.08e6, koff 0.55; settings: tags: C-terminal biotin; Chemotactics B-CXCL8-2 ug; immobilized on streptavidin; label: 3'-Cy5
# Description: as §2
# T1 sequence (P10145 28-99, one chain of several): as the sequence (P10145 28-99, one chain of several) above
binder,measurement,setting,value
"GGGUUAUCAUUCCAUUUAGUGUUAUGAUAA (ssRNA, 2'-F at all pyrimidines) [8A-30 (SEQ ID NO 3)]",Kd,[1],261 nM
same,Kd,[2],88 nM
"GGGGGCUUAUCAUUCCAUUUAGUGUUAUGAUAACC (ssRNA, 2'-F at all pyrimidines) [8A-35 (SEQ ID NO 2)]",Kd,[3],1010 nM
same,Kd,[4],168 nM
"GCGGUAGGAAGAAUUGGAAGCGC (ssRNA, 2'-F at all pyrimidines) [t22 (SEQ ID NO 4)]",kon,VEGF165 [5],220000 M⁻¹ s⁻¹
same,koff,VEGF165 [6],0.02 s⁻¹
"GGGGGCUUAUCAUUCCAUUUAGUGUUAUGAUAACCUCUCCCAUA (ssRNA, 2'-F at C and U (printed i2FC/i2FU up to position 36; text states all pyrimidines)) [8A-44 (SEQ ID NO 1)]",Kd,[7],2520 nM
same,Kd,[8],264 nM
